According to the RNAGym collection of RNA variant scans (doi:10.1073/pnas.2313332121):

B1: TPR t1 (parent)
chain: GACCAAUCUGCCCUCAGAGCUCGAGAACAUCUUCGGAUGCAGAGGAGGCAGGCUUCGGUGGCGCGAUAGCGCCAACGUCCUCAACCUCCAAUGCAUCCCACCACAUGAUGAUGCCUGAAGAGCCUUGGUUUUUUG

Variants of: B1
Assay: polymerase ribozyme fitness, log enrichment relative to wild type (log ratio); higher = more active; in vitro selection for triplet polymerase activity
Summary of the method: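 Mutant libraries were PCR-built and transcribed for each subunit of a heterodimeric triplet polymerase ribozyme and selected for one round in triplicate at −7 °C, frozen, before gel excision of extended constructs and streptavidin-bead capture. Input and output libraries were Illumina-sequenced, keeping genotypes with ≥10 input reads and ≥1 read per output. Fitness is a logarithmic ratio of genotype to wild-type enrichment, in base 2, using inverse-variance-weighted replicate averages.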

Question: With GACCAAUCUGGCCUCAGAGCUCGAGAACAUCUUCGGAUGAAGAGGAGGCAGGAUUCGGUGGCGCGAUAGCGCCAACGUCCUCAACCUCCAAUGCAUCCCACCACAUGAUGAUGCCUGAAGAGCCUUGGUUUUUUG [C11G C40A C53A] as the variant, how does the “polymerase ribozyme fitness (log ratio)” value read?
Answer: -0.596

Question: Which “polymerase ribozyme fitness (log ratio)” value does the source give for GACCAAUCUGCCCUCGGAGCUCGAGAACAUCUUCGGAUACAGAGGAGGCAGGCUUCGGUGGCGCGAUAGCGCCAACGUCCUCAACCUCCAAUGCAUCCCACCACAUGAUGAUGCAUGAAGAGCCUUGGUUUUUUG [A16G G39A C115A] here?
Answer: -2.22

Question: For GACCAAUCUGCCCUCAGAGCUCGAGAACAUCUUCGGAUGCAGAGGAGGCAGGCUUCGGUGGCGCGAUAGCGAGAACGUCCUCAACUUCCAAUGCAUCCCACCACAUGAUGAUGCAUGAAGAGGCUUGGUUUUUUG [C72A C73G C86U C115A C123G], which “polymerase ribozyme fitness (log ratio)” value is on record?
Answer: -0.582

Question: With GACCAAUCUGUCCUCAGAGCUCGAGAACAUCUUCGGAUGCAGAGGAGGCAGGCUUCGGUGGCGCGAUAGCGCCAACGUCCUCAACCUCCAAUGCAUCCCACCACAUGGUGAUGCCUGUAGAGCCUUGGUUUUUUG [C11U A108G A118U] as the variant, how does the “polymerase ribozyme fitness (log ratio)” value read?
Answer: -3.04

Question: With GACCAAUCUGCCCUCAGAGCUCGAGAACAUCUUCGGAUGCAGAGGAGGAAGGCUUCGGUGGCGCGAUAGCGGCAACGUCCUCAACCUCCAAUGCAUCCCACCACAUGAUGAUGCCUGAAGAGCCUUGGUUUCUUG [C49A C72G U132C] as the variant, how does the “polymerase ribozyme fitness (log ratio)” value read?
Answer: -0.77

Question: Which “polymerase ribozyme fitness (log ratio)” value does the source give for GACCAAUCUGCCCUCAGAGCUCGAGAACAUCUUCGGAUGCAGAGAAGUAAGGUUUCGGUGGCGCGAUACCGCCAACGUCCUCAACCUCCAAUGCAUCCCACCACAUGAUGAUGCGUGAAGAGCCUUGGUUUUUUG [G45A G48U C49A C53U G69C C115G] here?
Answer: -4.6

Question: For GACCAAUCUGCCCUCAGAGCUCGAGAACAUCUUCGGAUGCAGAGGAGGCAGGCUUCGGUGGCGCGAUAGCGCCAACGUCCCCAACCUUCAAUGCAUCCCACCACAUGAUGAUGCCUGAAGAGCCUUGGUUUUUUG [U81C C88U], which “polymerase ribozyme fitness (log ratio)” value is on record?
Answer: 0.221

Question: Which “polymerase ribozyme fitness (log ratio)” value does the source give for GACCAAUCUGCCCUCAGAGCUCGAGAACAUCUUCGGAUGCAGAGGAGGCAGGCUUCGGCGGCGCGAUAGCGCCAACGUCCUCAACCUCCAAUGCAUCCCACCACAUGAUGCUGCCUGAAGAGCCUUGCUUUUUUG [U59C A111C G128C] here?
Answer: -3.24

Question: With GACCAAUCUGCCCUGAGUGCUCGAGAACAUCUUCGGAUGCAGAGGAGGCAGGCUUCGGUGGCCCGAUAGCGCCAACGUCCUCAACCUCCACUGCAUCCCACCACAUGAUGAUGCCUGAAGAGCCUUGGUUUUUUG [C15G A18U G63C A91C] as the variant, how does the “polymerase ribozyme fitness (log ratio)” value read?
Answer: -4.66

Question: For GACCAAUCUGCCCUCAGAGCUCGAGAACAUCUUCGGAUGCAGAGGAGGCAGGAUUCGGCGGCGCGAUAGCGCCAACGUCCUCAACCUCCAAUGCAUCCCACCACAUGAUGAUGCCUGAAGGGCCUUGGUUUUUUG [C53A U59C A121G], which “polymerase ribozyme fitness (log ratio)” value is on record?
Answer: 1.49

Question: For GACCAAAGUGCCCUCAGAGCUCGAGAACAUCUUCGGAUGCAGAGAAGGCAGGCUUCGGUGGCGCGAUAGCGCCAACGUCCUCAACCUCCAAUGCAUCCCACCACAUGAUGAAGCCUGAAGAGCCUUGGUUUUUUG [U7A C8G G45A U112A], which “polymerase ribozyme fitness (log ratio)” value is on record?
Answer: 1.66

Question: With GACCAAUCUGCCCUCAGAGCUCGAGAACAUCUUCGGAUGCAGAGGCUGCAGGCUUCGGUGGCGCGAUAGCGCCAACGUCCUCAACCUCCAAUGCAUCCCACCACAUGAUGAUGCCUGAAGAGCCUUGGUUUUUUG [A46C G47U] as the variant, how does the “polymerase ribozyme fitness (log ratio)” value read?
Answer: -5.94

Question: For GACCACUAUGCCCUCAGAGCUCGAGAACAUCUUCGGAUGCAGAGGAGGCAGGCUUCGGUGGCGCGUUAGCGCCAACGUCCUCAAUCUCCAAUGCAUCCCACCACAUGAUGAUGCCUGAAGAGCCUUGGUUUUUUG [A6C C8A A66U C85U], which “polymerase ribozyme fitness (log ratio)” value is on record?
Answer: -1.77

Question: With GACCAAUCUGCCCUCAGAGCUCGAGAACAUCUUCGGAUGCAGAGGAGGCAGGCUUCGGUGGCGCGAUAGCGCCAACGUCCUCAACCUCCAAUCCAUCCCACCACAUGAUGAUGCCUGAAGAGCCUUGGUUUUUUA [G93C G135A] as the variant, how does the “polymerase ribozyme fitness (log ratio)” value read?
Answer: -1.71

Question: For GACCAAUCUGCCCUCAGAGCCCGAGAACUUCUUCGGAUGCAGAGGAGGCAGGCUUCGGUGGUGCGAUAGCGCCAACGUCCUCACCCUCCAAUGCAUCCCACCACAUGAUGAAGCCUGAGCAGCCUUGGUUUUUUG [U21C A29U C62U A84C U112A A119G G120C], which “polymerase ribozyme fitness (log ratio)” value is on record?
Answer: -1.53

Question: With GACCAAUCUGCCCUCAGAUCUCGAGAACAUCUUCGGAUGCAGAGGUGGCAGGCUUCGGUAGCGCGAUAGCGCCAACGUCCUCAACCUCCAAUGCAUCCCACCACAUGAUGAUGCCUGAAGAGCCUUGGUUUUUUG [G19U A46U G60A] as the variant, how does the “polymerase ribozyme fitness (log ratio)” value read?
Answer: -3.83

Question: Which “polymerase ribozyme fitness (log ratio)” value does the source give for GACCAAUCUGCCCUCAGAGCUCGAGAAAAUCUUCGGAUGCAGAGGAGGCAGGCUUCGGUGGCGCGAUAGCGCCCACGUCCUCAACCUCCAAUGCAUCCCACCACAUGAUGAUGCCUGAAGAGCCUUGGUUUUUUG [C28A A74C] here?
Answer: -4.96

Question: With GACCAAUCUACCCUCAGAGCUCGAGAACAUCUUCUGAUGCAGAGGAGGCAGGCUUGGGUGGCGCGAUAGCGCCAACGUCCUCAACCUACAAUGCAUCCCACCACAUGAUGAUGCCUGAACAGCCUUGGUUUUAUG [G10A G35U C56G C88A G120C U133A] as the variant, how does the “polymerase ribozyme fitness (log ratio)” value read?
Answer: -4.15

Question: With GACCAAUCUGCCCUCAGAGCUCGAGAACUUCUUCGGUUGCAGAGGAGGCAGGCUUCGGUUGCGCGAUAGCGCCAACGUCCUCAACCUCUAAUGCAUCCCACCACAUGAUGAUGCCUGAAGAGCCUUGGUUUUUUG [A29U A37U G60U C89U] as the variant, how does the “polymerase ribozyme fitness (log ratio)” value read?
Answer: -3.5

Question: With GACCAAUCUGCCCUCAGAGCUCGAGAACAUCUUCGGAUGCAGAGGAGGCAGGCUUCGGUGGCGCGAUAGCGCCAACGACCUCAACCUCCAAUGGAUCCCAACACAUGAUGAUGCCUGAAGAGCCUUGGUUUUUUG [U78A C94G C101A] as the variant, how does the “polymerase ribozyme fitness (log ratio)” value read?
Answer: -1.93

Question: For GACCAAUUCGCUCUCAGAGCUCGAGAACAUCUUCGGAUGCAGAGGAGGCAGGCUUCGGUGGCGCGAUAGCUCCAACGUCCUCAACCUCCAAUGCAUCCCACCACAUGAUGAUGCCUGAAGAGCCUUGGUUUAUUG [C8U U9C C12U G71U U132A], which “polymerase ribozyme fitness (log ratio)” value is on record?
Answer: 0.729
